This note sets out measurements from patent US20100119494A1, “METHODS AND COMPOSITIONS RELATED TO MODULATING THE EXTRACELLULAR STEM CELL ENVIRONMENT” (Massachusetts Institute of Technology, priority 2005, published 2010).

Test [1] deals with phosphorylation of ERK1/2 (MAPK pathway). The test can be described thus: Western blot of phospho-ERK normalized to total ERK1/2 in differentiating ES cells. The format is cell-based, mouse. The note with it: Western blot, FIGS. 14 and 18. How it is done:
Heparinase III (Hep-III) was prepared as described previously (Godavarti, R., et al. (1996) Biochemistry 35, 6846-52). Heparinase I (Hep-I) was a generous gift of Momenta Pharmaceuticals (Cambridge, Mass.). Sodium chlorate and heparin were purchased from Sigma and Cambrex BioWhittaker (East Rutherford, N.J.), respectively. To enzymatically modify the HSGAG glycome signature of the cells, cells were washed with phosphate buffer saline (PBS) and incubated with Hep-I or Hep-III for 30 minutes every day at 37° C. in serum free DMEM. Digested HSGAG residues were removed by washing the cells, and cells were then fed with fresh media. In an additional experiment, cells were cultured with medium containing sodium chlorate, which blocks the sulfation of HSGAGs. In a reversal experiment, heparin was added to the culture to overcome the chlorate induced synthetic block. Treated cells were analyzed for differentiation into endothelial cells between day 3 and day 15. Hep-III was added to the cells at a concentration of 2.5 μg/mL, Hep-I was added at a concentration of 1.5 μg/mL, sodium chlorate at 10 mM and heparin (20 μg). The concentrations of enzymes were optimized to exhaustively cleave all cell surface HSGAGs in the given period of time. All enzymes and chemicals were diluted in serum free DMEM.
For elucidating the biochemical pathways involved downstream of the modulation of the cell surface sugars, protein contents of the embryoid bodies were solubilized by rapid mixing with 3× SDS sample buffer under reducing conditions. Equivalent amounts of protein per sample were electrophoretically resolved on 4-12% gradient polyacrylamide gels and transferred onto a nitrocellulose (0.22 μm) membrane. The membrane was subsequently probed with a phosphor-ERK antibody (1:800 dilution, Cell Signaling Technologies, Danvers, Mass.), which specifically detects the phosphorylated forms of ERK1 and 2. The signal was amplified using a 1:2000 dilution of the appropriate horseradish peroxidase-conjugated secondary antibody (BioRad, Hercules, Calif.), and the immunocomplexes were visualized using enhanced chemiluminescence detection (Amersham Life Science, Piscataway, N.J.). The signal was normalized to the expression of total ERK1/2, which was detected on the same blot using ERK1/2 specific antibodies (Santa Cruz, Santa Cruz, Calif., used at a 1:200 dilution). Quantification of the luminescence signal was carried out by a Kodak 2000R imager.
The MAPK pathway is the downstream convergence point of the signaling of several angiogenic factors such as VEGF, FGF, HGF, EGF, PDGF and angiopoietins (Sengupta, S., et al. (2003) Arterioscler Thromb Vasc Biol 23, 69-75). […]
Background: A western blot detects proteins with antibodies after separation by electrophoresis.

Test [2] deals with differentiating ES cells (J1). The test can be described thus: Flow cytometry of vWF in differentiating ES cells after enzymatic or pharmacological modification of HSGAGs. The class given is cell-based, mouse. The settings on record: FIG. 12B, Hep-I 1.5 μg/mL or Hep-III 2.5 μg/mL 30 minutes every day, sodium chlorate 10 mM in medium. As for the experimental part: Mouse embryonic stem cells (J1) (gift from Bevin Engelward, Mass. Institute of Technology, Cambridge, Mass.) were grown in DMEM with 2 mM L-glutamine (GIBCO, Carlsbad, Calif.) adjusted to contain […] sodium pyruvate, 10 mM nonessential amino acids and 1.5 g/L sodium bicarbonate, with 15% fetal bovine serum (Hyclone, South Logan, Utah) and supplemented with 100 units/mL penicillin G (Sigma, St. Louis, Mo.), 100 μg/mL streptomycin sulfate (Sigma), 30 mM beta-mercaptoethanol (Sigma) and 1000 units/ml murine leukemia inhibitory factor, LIF (Chemicon, Temecula, Calif.). The cells were plated in 10 cm^2 cell culture dishes, coated with 0.1% gelatin B (Sigma) and grown at 37° C. in a 5% CO2 humidifier incubator. The culture medium was changed every 2 days. The cells were subcultured at a split ratio of 1:10 when they reached 80% to 90% confluency, using a 0.25% trypsin-EDTA solution (Sigma). To induce formation of embryoid bodies and differentiation into endothelial cells, J1 cells were plated at a density of 1.25×10^5 cells/100 mm dish, or 3×10^4 cells/6 wells and cultured in the absence of LIF. Fresh media was replenished every 2 days.
Heparinase III (Hep-III) was prepared as described previously (Godavarti, R., et al. (1996) Biochemistry 35, 6846-52). […] Treated cells were analyzed for differentiation into endothelial cells between day 3 and day 15. […]
Cells were harvested at various time points during differentiation, incubated with rat monoclonal antibody against CD16/CD32 (1:50 dilution, Pharmingen, San Diego, Calif.) to block Fey receptors and incubated further with a primary antibody against von Willebrand factor (vWF) (Dako (Carpinteria, Calif.), rabbit polyclonal, added at a 1:100 dilution). […] Cells were then washed twice and were incubated with FITC-conjugated secondary antibody (Jackson ImmunoResearch, West Grove, Pa.) in a 1:100 dilution, washed twice and taken up in OptiMEM (GIBCO/BRL, Carlsbad, Calif.) and analyzed on a Becton Dickinson (Franklin Lakes, N.J.) FACScan flow cytometer (excitation 488 nm, argon laser; emission 580/30). […]

Regarding `[O-][Cl+2]([O-])O` [sodium chlorate, reference compound], in test [1], the “phosphorylation of ERK1/2” value was “inhibits”. Besides, in test [2], the “decrease of the proportion of cells expressing detectable levels of vWF” value (“decrease” below) is “approximately 5 fold”.

B1: Hep-III: HSGAG-degrading enzyme; cleaves HSGAGs at undersulfated regions (protein, UniProt Q59289 25-659, looked up)
Heparin-sulfate lyase: QSSSITRKDFDHINLEYSGLEKVNKAVAAGNYDDAAKALLAYYREKSKAREPDFSNAEKPADIRQPIDKVTREMADKALVHQFQPHKGYGYFDYGKDINWQMWPVKDNEVRWQLHRVKWWQAMALVYHATGDEKYAREWVYQYSDWARKNPLGLSQDNDKFVWRPLEVSDRVQSLPPTFSLFVNSPAFTPAFLMEFLNSYHQQADYLSTHYAEQGNHRLFEAQRNLFAGVSFPEFKDSPRWRQTGISVLNTEIKKQVYADGMQFELSPIYHVAAIDIFLKAYGSAKRVNLEKEFPQSYVQTVENMIMALISISLPDYNTPMFGDSWITDKNFRMAQFASWARVFPANQAIKYFATDGKQGKAPNFLSKALSNAGFYTFRSGWDKNATVMVLKASPPGEFHAQPDNGTFELFIKGRNFTPDAGVFVYSGDEAIMKLRNWYRQTRIHSTLTLDNQNMVITKARQNKWETGNNLDVLTYTNPSYPNLDHQRSVLFINKKYFLVIDRAIGEATGNLGVHWQLKEDSNPVFDKTKNRVYTTYRDGNNLMIQSLNADRTSLNEEEGKVSYVYNKELKRPAFVFEKPKKNAGTQNFVSIVYPYDGQKAPEISIRENKGNDFEKGKLNLTLTINGKQQLVLVP
As for B1, in test [1], the “phosphorylation of ERK1/2” value was “inhibits”. Moreover, in test [2], the “decrease” value is on record as about 3 fold.

B2: Hep-I: HSGAG-degrading enzyme; cleaves HSGAGs at highly sulfated regions; gift of Momenta Pharmaceuticals (protein, UniProt Q05819 22-384, looked up)
Heparin lyase I: QQKKSGNIPYRVNVQADSAKQKAIIDNKWVAVGINKPYALQYDDKLRFNGKPSYRFELKAEDNSLEGYAAGETKGRTELSYSYATTNDFKKFPPSVYQNAQKLKTVYHYGKGICEQGSSRSYTFSVYIPSSFPDNATTIFAQWHGAPSRTLVATPEGEIKTLSIEEFLALYDRMIFKKNIAHDKVEKKDKDGKITYVAGKPNGWKVEQGGYPTLAFGFSKGYFYIKANSDRQWLTDKADRNNANPENSEVMKPYSSEYKTSTIAYKMPFAQFPKDCWITFDVAIDWTKYGKEANTILKPGKLDVMMTYTKNKKPQKAHIVNQQEILIGRNDDDGYYFKFGIYRVGNSTVPVTYNLSGYSETAR
On to B2, for which the “phosphorylation of ERK1/2” value in test [1] is listed as “inhibits”. Also, the “decrease” value in test [2] is “approximately 5 fold”.
